{"source": "patent JP2003513027A", "key": {"[1]": {"biological_target": "Cu-OxLDL (copper-oxidised low density lipoprotein)", "test": "125I-Cu-OxLDL binding to mouse peritoneal macrophages on ice, IK17 as competitor, % of control without competitor"}, "[2]": {"biological_target": "Cu-OxLDL (copper-oxidised low density lipoprotein)", "test": "cell-based or functional assay"}, "[3]": {"biological_target": "MDA-LDL (malondialdehyde-modified low density lipoprotein)", "test": "direct binding and competition assays with affinity-purified Fab"}}, "note": "Values joined by “and” are separate entries in the source; they are usually repeats but may differ in a detail not shown here. Identical values can stand only once."}
{"substance": "IK17 human monoclonal IgG Fab", "values": [{"measurement": "% inhibition of the binding of 125I-Cu-OxLDL to macrophages", "setting": "[1]", "value": "70% and 85%"}, {"measurement": "degradation of 125I-Cu-OxLDL by macrophages (TCA-soluble 125I in the medium), % inhibition", "setting": "[2]", "value": "50% and 65%"}, {"measurement": "Kd", "setting": "[3]", "value": 0.037, "unit": "µM"}]}
